What was measured:
mCD28 [1] = target: T1, mCD28 (Homo sapiens, UniProt P10747); experiment: FACS binding to mCD28 on naïve CD3 T cells; conditions: antibody 20 μg/mL
T1 construct: expressed in transfected cells
Description: Flow Cytometry—Generally, cells were kept on ice during all steps. Prior to staining, 5×10^5 cells were blocked with 50 μg/mL human IgG (Sigma, Cat. No. 14506) in FACS buffer (PBS with 0.1% BSA) for 15 min. Antibodies were used at concentrations recommended by the manufacturer and incubated for 30 min. in the dark. Incubations were done in a volume of 100 μL in 96-well U bottom plates. Cells were washed twice with 200 μL of FACS buffer and transferred to FACS tubes in 150 μL of FACS buffer for analysis. Cells were analyzed on a Gallios Flow Cytometer (Beckman Coulter) using the Kaluza for Gallios Flow Cytometry Acquisition Software.
Lastly, the ability of antibodies #1-3 to bind to mCD28 at all was examined. While it is not essential that a sCD28 antibody not bind mCD28 it is advantageous. Such an antibody could be used for specific detection of the soluble protein, and if used therapeutically would have no effect on the membranal form. Naïve isolated CD3 T cells were evaluated by FACs to assay mCD28 binding. Cells were incubated with antibodies #1-3 (20 μg/mL dark grey histograms) or isotype controls (mIgG, 20 μg/mL, light grey histograms). Binding detection was performed with Alexa Fluor 647-conjugated goat anti mouse secondary antibody.

mCD28 [2] = target: T1, mCD28; experiment: CD86 blocking FACS on HEK293 cells stably transfected with human CD28; type: binding; conditions: CD86-Fc 5 μg/mL; antibody 20 μg/mL
Description: CD86 blocking FACS—0.5×10^6 HEK293 cells stably transfected with human CD28 were incubated with 5 μg/mL CD86-Fc (R&D systems, Cat. No. 141-B2) without or with anti CD28 antibodies (20 μg/mL) for 30 min in room temperature. Cells were washed and taken for secondary binding using anti-human heavy and light chains antibody conjugated to fluorophore at 1:5000 dilution for 20 min on ice.

[3] = test system: isolated CD3 human T cells; experiment: CD3 T cells stimulation with anti-CD3 OKT3, IFN gamma secretion; type: cell-based; conditions: anti-CD3 stimulation; CD28.2 2.0 μg/mL, antibodies 0.1-10 μg/mL
Description: T cells stimulation with OKT3—0.1×10^6 isolated CD3 T cells (from healthy donors) were stimulated with indicated amount of anti-CD3 clone OKT3 for 48-72 hr at 37° C. When stated recombinant human CD80-Fc (2 μg/mL, R&D system) was added in soluble form. Antibodies to CD28 or controls were added at the indicated concentration in soluble form.
CD80 is one of the two main ligands for mCD28 along with CD86. The extracellular domain of CD80 fused to an Fc moiety has been used as an immune stimulatory molecule and is under investigation as a cancer therapy. In order to examine the effect of sCD28 on CD80-Fc efficacy, isolated CD3 human T cells were stimulated with plate bound anti-CD3 antibody (OKT3, 2 μg/mL) in the presence of 2 μg/mL soluble recombinant human CD80-Fc.

sCD28 = experiment: Simulated sweeping of soluble CD28 from plasma with antibody coated magnetic beads; parameters: species or system human; conditions: cancer patient plasma; 0.125-2 μg antibody on beads; 37° C. 2 hours
Description: Simulated sweeping of soluble CD28 from plasma of cancer patient. Antibodies or recombinant proteins were coated on tosyl-activated magnetic beads (Invitrogen, Cat. No. DY-14203) as described by manufacturer protocol. […] The mixture was incubated in a thermomixer for 2 hr, 1000 RPM at 37° C., followed by removal of the beads using a DynaMag magnet (Invitrogen, Cat. No. 12321D) and the samples were examined using CD28 specific ELISA.
Varying amounts (0.125-2 μg) of antibodies #1 and #2 were loaded onto tosyl-activated magnetic beads according to the manufacturer's protocol (Thermo Fisher Scientific). The loaded beads were then added to plasma samples from a cancer patient, and the mixture was incubated in a thermomixer at 37° C. for 2 hours at 1000 RPM. The beads were isolated and removed from the plasma with a magnet and the amount of sCD28 remaining in the serum was measured by ELISA.
Antibody #1 was further tested on various cancer samples (melanoma, colorectal and ovarian) and compared to three B7 molecules which are known ligands of CD28. About 1.5 μg of antibody #1, CD80, CD86 and ICOSL were each loaded onto tosyl-activated magnetic beads and the beads were mixed with plasma as before. A colorectal sample (FIG. 16C), as well as two melanoma samples (FIG. 16D-E), an ovarian sample (FIG. 16F) and a sample from a healthy donor (FIG. 16G) were all tested.

recombinant mouse CD28 = target: T2, recombinant mouse CD28 (Mus musculus, UniProt P31041); experiment: Direct ELISA on recombinant mouse CD28; type: binding
T2 construct: ELISA assay on increasing concentrations of mouse sCD28; purchased R&D 483-CD
T2 sequence (P31041 20-150 limits assumed): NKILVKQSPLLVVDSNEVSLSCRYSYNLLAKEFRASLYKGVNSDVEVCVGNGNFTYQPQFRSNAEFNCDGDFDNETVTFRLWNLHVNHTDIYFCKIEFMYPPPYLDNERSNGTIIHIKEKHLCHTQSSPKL

recombinant human CD28 = target: T3, recombinant human CD28 (Homo sapiens, UniProt P10747); experiment: Direct CD28 ELISA on recombinant human CD28; type: binding
T3 construct: recombinant human CD28 lacking the transmembrane and cytoplasmic domains; purchased R&D 342-CD

B1: antibody #2: sCD28 binding (sweeping) antibody; heavy chain SEQ ID NO: 46, light chain SEQ ID NO: 48 (antibody)
heavy: QVQLQQSGAELARPGASVKLSCKASGYTFTSYWMQWIKKRPGQGLEWIGAIYPGDGDTRYTQKFKGKATLTADKSSTTAYMQLSSLASEDSAVYFCARNYRYSSFGYWGQGTLVTVSAAKTTPPSVYPLAPGCGDTTGSSVTLGCLVKGYFPESVTVTWNSGSLSSSVHTFPALLQSGLYTMSSSVTVPSSTWPSQTVTCSVAHPASSTTVDKKLEPSGPISTINPCPPCKECHKCPAPNLEGGPSVFIFPPNIKDVLMISLTPKVTCVVVDVSEDDPDVQISWFVNNVEVHTAQTQTHREDYNSTIRVVSTLPIQHQDWMSGKEFKCKVNNKDLPSPIERTISKIKGLVRAPQVYILPPPAEQLSRKDVSLTCLVVGFNPGDISVEWTSNGHTEENYKDTAPVLDSDGSYFIYSKLNMKTSKWEKTDSFSCNVRHEGLKNYYLKKTISRSPGK
light: DIVMTQSPSSLTVTAGEKVTLSCKSSQSLLNSGNQKNYLTWYQQKPGQPPQLLIYWASTRESGVPDRFTGSGSGTDFTLTISSVQAEDLAVYYCQSDYSYPLTFGAGTKLELKRADAAPTVSIFPPSSEQLTSGGASVVCFLNNFYPKDINVKWKIDGSERQNGVLNSWTDQDSKDSTYSMSSTLTLTKDEYERHNSYTCEATHKTSTSPIVKSFNRNEC
- binding to mCD28 on the cell surface (mCD28 [1]): do not bind CD28 on the cell surface
- CD86 binding to mCD28 (mCD28 [2]): none of antibody #1 (FIG. 15B), antibody #2 (FIG. 15C), or antibody #3 (FIG. 15D) blocked binding of CD86 to mCD28
- IFNγ secretion (agonism) [3]: no effect on IFN secretion
- removal of sCD28 from plasma (sCD28): capable of binding and removing sCD28 from plasma
- binding to mouse CD28 (recombinant mouse CD28): able to bind mouse CD28
- relationship of signal to concentration (recombinant human CD28): a linear relationship to increasing antibody concentrations over the entire range examined
- binding to sCD28 (recombinant human CD28; immobilized recombinant human sCD28): much stronger binding to sCD28

— US12139534B2, “Methods and compositions for decreasing soluble immune receptor CD28” (BIOND BIOLOGICS LTD., priority 2018, dated 2024)
